Test results as given in patent US10428347B2, “Herbicide-detoxifying enzymes and uses thereof” (priority 2017, dated 2019).

Legend:
[1] = Absorbance spectra assay of mecoprop degradation by ChD or CAC; format: biochemical; conditions: mecoprop 200 mg/L alone (no enzyme), 50 mM HEPES pH 7, one hour at 37° C.
Experimental: (§1) Small scale (1 mL) assays were performed to evaluate the ability of ChD and CAC to degrade MCPA-4 amine or mecoprop.
(§2) MCPA-4 amine and mecoprop have absorbance maxima (Amax) at approximately 230 and 280 nm. […] MCPA-4 amine or mecoprop end product generation is directly proportional to the degradation MCPA-4 amine or mecoprop, respectively.

[2] = Absorbance spectra assay of MCPA-4 amine degradation by ChD or CAC; format: biochemical; conditions: MCPA-4 amine 200 mg/L alone (no enzyme), 50 mM HEPES pH 7, one hour at 37° C.
Experimental: as §1, §2

[3] = Sorbitol dehydrogenase enzyme activity (NADH production at 340 nm); format: biochemical; conditions: for enzyme activity level: NAD^+ and sorbitol, absorbance readings at 340 nm at 5 min after the start of the reaction; for regeneration of NADH (NADH production, 0-36 min): vs no enzyme control and background A64
Excerpt: To determine enzyme activity for sorbitol dehydrogenase in the production samples, reactions were set up with NAD^+, sorbitol and the sorbitol dehydrogenase enzyme collected in supernatant derived from the Bacillus subtilis A64 cultures. Absorbance at 340 nm was monitored with a BioTek SYNERGY HTX plate reader (BioTek Industries Inc.). […] The extinction coefficient of NADH at 340 nm (6220 M^−1 cm^−1) was used to estimate the enzyme activity of the sorbitol dehydrogenase enzyme. The enzyme activity was compared to commercially available sorbitol dehydrogenase enzyme produced from sheep liver (S-3764, Sigma-Aldrich).
NADH production was measured and reported as an average of 7 measurements and reported over a time series (0-36 min.) for the sorbitol dehydrogenase GutB (SDH GutB), the sorbitol dehydrogenase from sheep liver (SDH control) and compared to the A64 filtrate and no enzyme treatments both used as negative controls in the enzyme assay.

[4] = Experimental: A Bacillus subtilis (A64) control reaction, which was supernatant with no SM1 enzyme was performed in parallel. The reactions were incubated at 37° C. with 400 rpm stirring for two hours. Aliquots of the reactions were collected at time 0 (T0), 1 hour, and 2 hours, and frozen at −80° C.
HPLC column (Kinetex® 5 μm C18 100 Å, LC Column 50×4.6 mm) was equilibrated for 15 minutes with 35% acetonitrile and 65% 10 mM ammonium acetate with 0.1% formic acid in water. A volume of 10 μL of each sample was injected into Waters 2695 Separations Module with a 2996 Photodiode Array Detector. Samples were run isocratically (35% acetonitrile and 65% 10 mM ammonium acetate with 0.1% formic acid in water) for 2 minutes. […] An average of 3 measurements was run for each treatment sample.
The HPLC results as reported in FIG. 2 are the average of 3 sample measurements.

soybean plants = assay: Trifoliate damage scoring of soybean treated with SM1-dicamba reaction products; format: in vivo; conditions: V1 soybean (Morsoy Xtra), 100 μL reaction product diluted 1:24 with 0.01% SILWET L-77 on trifoliate leaves, 6 plants; Time (hours) 2; scale 0-5
Excerpt: These SM1-dicamba degradation products were applied to soybean seedlings (variety, Morsoy Xtra). […] The plants were scored based on trifoliate damage using the scale as described in Table 27.

lentil plants = assay: Lentil seeds coated with immobilized enzyme, grown in dicamba-containing soil; format: in vivo
Experimental: For each treatment group, eighteen lentil seeds were coated with immobilized salicylate monooxygenase (SM, SEQ ID NO: 21) or hydroxyphenylacetate monooxygenase (HPAM, SEQ ID NO: 30), or with a water-only control (H2O) or a control containing only the particles used for immobilization, without any enzyme (“Particle Alone”). […] 50 ml of water was selected as this is the saturation point of this soil at this scale. Herbicides were allowed to sit in the soil for 24 hours before planting of coated seeds. Germination rate was measured at one week and root and shoot lengths were measured after two weeks.
Further data illustrating the protective effects of salicylate monooxygenase (SM) and hydroxyphenylacetate monooxygenase (HPAM) on lentil plants grown in dicamba-containing soil are provided in FIGS. 6-9. Lentil seeds were treated as described above with water alone, particle alone, or enzyme immobilized on a particle. […] Growth (shoot and root length) was measured at two weeks.

soybean seedlings = assay: Spray of enzyme-treated dicamba solution onto soybean seedlings; format: in vivo; conditions: 208 μM dicamba, immobilized enzyme, 30° C., soybean seedlings, one week
Experimental: Salicylate monooxygenase (SM, SEQ ID NO: 21) and hydroxyphenylacetate monooxygenase (HPAM, SEQ ID NO: 30) were immobilized on particles. […] Aliquots (1 ml) were taken from incubated samples at 0 minutes, 10 minutes, 30 minutes, 1 hour, 5 hours, 24 hours and 30 hours after the introduction of SM and immediately frozen to stop the detoxification reaction. NADPH consumption was quantified by measuring loss of absorbance at 340 nm using a spectrophotometer. Results for SM are shown in panel A of FIG. 10 and results for HPAM are shown in panel A of FIG. 11. Consumption of NADPH is proportional to the degradation of dicamba.
Immediately after taking the absorbance measurements, the 1 ml aliquots were mixed with a nonionic organosilicone surfactant copolymer (0.1% SILWET L77) and 200 μL of the mixture was sprayed onto 2.5-week-old soybean seedlings (six plants per treatment group, on average). The use of the surfactant ensured even distribution of the solutions on the plants. Control plants were sprayed with water+surfactant alone or dicamba+surfactant alone. After one week, the degree of herbicide damage or the degree of protection from dicamba-induced injury (in plants treated with SM) was assessed visually.

Molecule: Cc1cc(Cl)ccc1OC(C)C(=O)[O-].[K+] (racemic) [Mecoprop, Potassium (RS)-2-(2-methyl-4-chlorophenoxy)propionate, reference compound]
- Absorbance Maxima at Wavelength (λ) 230 [1]: 1.723
- Absorbance Maxima at Wavelength (λ) 252 [1]: 0.2562
- Absorbance Maxima at Wavelength (λ) 280 [1]: 1.214

Molecule: Cc1cc(Cl)ccc1OCC(=O)O [MCPA-4-Amine, 2-methyl-4-chlorophenoxyacetic acid, reference compound]
- Absorbance Maxima at Wavelength (λ) 230 [2]: 1.739
- Absorbance Maxima at Wavelength (λ) 252 [2]: 0.2573
- Absorbance Maxima at Wavelength (λ) 280 [2]: 1.506

B1: SDH control: commercially available sorbitol dehydrogenase enzyme produced from sheep liver (S-3764, Sigma-Aldrich) (protein, UniProt P07846 1-354, looked up)
Sorbitol dehydrogenase: AKPAAENLSLVVHGPGDLRLENYPIPEPGPNEVLLKMHSVGICGSDVHYWQGRIGDFVVKKPMVLGHEASGTVVKVGSLVRHLQPGDRVAIQPGAPRQTDEFCKIGRYNLSPTIFFCATPPDDGNLCRFYKHNANFCYKLPDNVTFEEGALIEPLSVGIHACRRAGVTLGNKVLVCGAGPIGLVNLLAAKAMGAAQVVVTDLSASRLSKAKEVGADFILEISNESPEEIAKKVEGLLGSKPEVTIECTGVETSIQAGIYATHSGGTLVLVGLGSEMTSVPLVHAATREVDIKGVFRYCNTWPMAISMLASKSVNVKPLVTHRFPLEKALEAFETSKKGLGLKVMIKCDPSDQNP
- enzyme activity level [3]: 1447 U/mL
- regeneration of NADH (NADH production, 0-36 min) [3]: greater regeneration of NADH

B2: SM1: salicylate monooxygenase from Bacillus cereus strain B377, amino acid SEQ ID NO: 251 (nucleotide SEQ ID NO: 243) (protein, listed as Bacillus cereus)
chain: MGKEKKYDAIVVGAGPVGLVAGLALQKKGISTLVIEADSFGRPRPGSRAIYLHSASLKLLEETSEGLGFTLAHNGIIWPVKRTFYKGKEVYVRDYGKDENLKFNRLPHFTALHQDEIEKHMYEACIKEGVEFLWDAPVKKLHITDSGVELTITNDEILKAQYVIGCDGARSIVREEAGLTFEGPRTADTFIVVDAKEDETDPLPLERIFHYQHPAMEGRNVMFVPFKGGWRIDLQLLESDNPDDYTNIESVKTWLPKVMDAKYAERITWVSSYRFHQVVANSFTDEKRRVLLAGEAAHLFAPFGARGLNSGIPDAVLAARGIEKALHSHSEEERVEAIEAAAKERRIAAQWNRDASTTALHHLQGSSPEMNMKRDIAASLVSIVPRLGRWLDEGPYGPKFGPPELTTKY
- Percent Dicamba Concentration Relative to T0 control ([4]; HPLC, Time 2 hours): 84.3%
- dicamba concentration (HPLC) ([4]; dicamba 100 ppm, 250 μL SM1 enzyme, 0.5 mM NADH, HEPES pH 7.0, 1 hour of incubation (FIG. 17)): decreased concentrations
- decrease in dicamba concentration (HPLC) ([4]; dicamba 100 ppm, 250 μL SM1 enzyme, 0.5 mM NADH, HEPES pH 7.0, 2 hours of incubation (FIG. 17)): approximately 50%
- average trifoliate damage score (soybean plants): 2.8

B3: GutB sorbitol dehydrogenase: sorbitol dehydrogenase from Bacillus subtilis strain 168, SEQ ID NO: 288, cofactor-regenerating enzyme (protein, listed as Bacillus subtilis)
chain: MTHTVPQNMKAAVMHNTREIKIETLPVPDINHDEVLIKVMAVGICGSDLHYYTNGRIGNYVVEKPFILGHECAGEIAAVGSSVDQFKVGDRVAVEPGVTCGRCEACKEGRYNLCPDVQFLATPPVDGAFVQYIKMRQDFVFLIPDSLSYEEAALIEPFSVGIHAAARTKLQPGSTIAIMGMGPVGLMAVAAAKAFGAGTIIVTDLEPLRLEAAKKMGATHIINIREQDALEEIKTITNDRGVDVAWETAGNPAALQSALASVRRGGKLAIVGLPSQNEIPLNVPFIADNEIDIYGIFRYANTYPKGIEFLASGIVDTKHLVTDQYSLEQTQDAMERALQFKNECLKVMVYPNR
- enzyme activity level [3]: 207 U/mL
- regeneration of NADH (NADH production, 0-36 min) [3]: sufficient ability to reduce NAD to NADH

B4: HPAM: hydroxyphenylacetate monooxygenase from Bacillus cereus BGSC 6E1, amino acid SEQ ID NO: 30 (protein, listed as Bacillus cereus)
chain: MAIRTGEQYIEGLRKRNPEIWIGGRKVTDVVNEDVFREPIIQIANLYDMQHNPEYQDKITHICEETGERVSNAFLVPRNYEDLKVRRELFEVWAKATYGLMGRTPDFLNVTVTSMASNSWFFEKFNPEWGANIKNYYKHIRDNDLFLTHAIINPQNDRSKASHQQEDETMHLGVVSETAEGMYVSGAKMLATLAPITDEVIIYSYPSFKPGDERHAISFAVPIDAPGLRILCREPMQDGKRSLFDHPLASRFEEMDALLVFHNVFIPWDKVFIYQSVEAGNQLYPKTGIGHQPAHQSGVRGLVKLSFAAEVAMKLADSIGVDGFLNVQNQLAELMQDVETIRALLQVAEYEYETNSYGEVIPARLPLDTIRSLLPKMYPRAIEIIQTIGAGGLLMSPTGADFMNPEIHDDMQKYYIGREGVSSEERVRLFKLAWDLCGEAFGQRLLQYERYYSGDPVRKMGMFYNAYKKQQTFSLVNNALQSSSSEGALS
- germination rate (lentil plants; lentil seeds coated with immobilized enzyme, soil with dicamba 0.1× or […] label rate, one week, vs water and particle-alone controls): positive effect
- shoot length (lentil plants; two-week-old lentil, soil with dicamba 0.1× label rate (0.588 mg/L), vs water only or particle only controls (FIG. 6, FIG. 8)): longer shoot lengths
- incubation time of enzyme with dicamba giving plants equivalent to the water control (soybean seedlings): 30 min
